Reference: patent US20220306695A1, “COMPSTATIN ANALOGUES AND THEIR MEDICAL USES” (priority 2019, published 2022)
Starred links: 1 amine or outer side, 2 acyl side, 3 side chain; linkers in the order of their positions; H or OH if unused. Positions of bridges follow the written chain, without caps; N, C: chain ends. Non-standard residues stand in square brackets, D forms with d. Groups on a side chain read outwards from the residue. *: point of attachment. C20 diacid = O=C(O)CCCCCCCCCCCCCCCCCCC(=O)*; Trp(1-Me) = Cn1cc(C[C@H](N)C(=O)O)c2ccccc21; C18 diacid = O=C(O)CCCCCCCCCCCCCCCCC(=O)*; C16 diacid = O=C(O)CCCCCCCCCCCCCCC(=O)*; γGlu = O=C(O)[C@H](CCC(=O)[*:2])N[*:1]; AEEA = NCCOCCOCC(=O)O; Sar = CNCC(=O)O

B1: Compound 97 (peptide)
peptide: Ac-ICIWQDWGEHRCTEGEK([AEEA-AEEA-γGlu-C18 diacid])-NH2
modifications: disulfide 2-12
SMILES: CC[C@H](C)[C@H](NC(C)=O)C(=O)N[C@H]1CSSC[C@@H](C(=O)N[C@H](C(=O)N[C@@H](CCC(=O)O)C(=O)NCC(=O)N[C@@H](CCC(=O)O)C(=O)N[C@@H](CCCCNC(=O)COCCOCCNC(=O)COCCOCCNC(=O)CC[C@H](NC(=O)CCCCCCCCCCCCCCCCC(=O)O)C(=O)O)C(N)=O)[C@@H](C)O)NC(=O)[C@H](CCCNC(=N)N)NC(=O)[C@H](Cc2c[nH]cn2)NC(=O)[C@H](CCC(=O)O)NC(=O)CNC(=O)[C@H](Cc2c[nH]c3ccccc23)NC(=O)[C@H](CC(=O)O)NC(=O)[C@H](CCC(N)=O)NC(=O)[C@H](Cc2c[nH]c3ccccc23)NC(=O)[C@H]([C@@H](C)CC)NC1=O
B2: Compound 98 (peptide)
peptide: Ac-ICIWQDWGEHRCTEGK([AEEA-AEEA-γGlu-C20 diacid])-NH2
modifications: disulfide 2-12
SMILES: CC[C@H](C)[C@H](NC(C)=O)C(=O)N[C@H]1CSSC[C@@H](C(=O)N[C@H](C(=O)N[C@@H](CCC(=O)O)C(=O)NCC(=O)N[C@@H](CCCCNC(=O)COCCOCCNC(=O)COCCOCCNC(=O)CC[C@H](NC(=O)CCCCCCCCCCCCCCCCCCC(=O)O)C(=O)O)C(N)=O)[C@@H](C)O)NC(=O)[C@H](CCCNC(=N)N)NC(=O)[C@H](Cc2c[nH]cn2)NC(=O)[C@H](CCC(=O)O)NC(=O)CNC(=O)[C@H](Cc2c[nH]c3ccccc23)NC(=O)[C@H](CC(=O)O)NC(=O)[C@H](CCC(N)=O)NC(=O)[C@H](Cc2c[nH]c3ccccc23)NC(=O)[C@H]([C@@H](C)CC)NC1=O
B3: Compound 106 (peptide)
peptide: Ac-SAYCI[Trp(1-Me)]QDWGEHRC[Sar]EK([γGlu-Gly-γGlu-C18 diacid])-NH2
modifications: disulfide 4-14
SMILES: CC[C@H](C)[C@@H]1NC(=O)[C@@H](NC(=O)[C@H](Cc2ccc(O)cc2)NC(=O)[C@H](C)NC(=O)[C@H](CO)NC(C)=O)CSSC[C@@H](C(=O)N(C)CC(=O)N[C@@H](CCC(=O)O)C(=O)N[C@@H](CCCCNC(=O)CC[C@H](NC(=O)CNC(=O)CC[C@H](NC(=O)CCCCCCCCCCCCCCCCC(=O)O)C(=O)O)C(=O)O)C(N)=O)NC(=O)[C@H](CCCNC(=N)N)NC(=O)[C@H](Cc2c[nH]cn2)NC(=O)[C@H](CCC(=O)O)NC(=O)CNC(=O)[C@H](Cc2c[nH]c3ccccc23)NC(=O)[C@H](CC(=O)O)NC(=O)[C@H](CCC(N)=O)NC(=O)[C@H](Cc2cn(C)c3ccccc23)NC1=O
B4: Compound 95 (peptide)
peptide: ICIWQDWGEHRCTEGK
modifications: N-acetyl; C-terminal amide; disulfide C2-C12; K16 side chain bears (15-carboxy-pentadecanoyl)-[(Piperazine-1-yl)-acetyl][Peg3][Peg3]
B5: Compound 7 (peptide)
peptide: Ac-ICIWQKWGEHRCT-NH2
modifications: disulfide 2-12
SMILES: CC[C@H](C)[C@H](NC(C)=O)C(=O)N[C@H]1CSSC[C@@H](C(=O)N[C@H](C(N)=O)[C@@H](C)O)NC(=O)[C@H](CCCNC(=N)N)NC(=O)[C@H](Cc2c[nH]cn2)NC(=O)[C@H](CCC(=O)O)NC(=O)CNC(=O)[C@H](Cc2c[nH]c3ccccc23)NC(=O)[C@H](CCCCN)NC(=O)[C@H](CCC(N)=O)NC(=O)[C@H](Cc2c[nH]c3ccccc23)NC(=O)[C@H]([C@@H](C)CC)NC1=O
B6: Compound 96 (peptide)
peptide: Ac-ICIWQDWGEHRCTEGK([AEEA-AEEA-γGlu-C18 diacid])-NH2
modifications: disulfide 2-12
SMILES: CC[C@H](C)[C@H](NC(C)=O)C(=O)N[C@H]1CSSC[C@@H](C(=O)N[C@H](C(=O)N[C@@H](CCC(=O)O)C(=O)NCC(=O)N[C@@H](CCCCNC(=O)COCCOCCNC(=O)COCCOCCNC(=O)CC[C@H](NC(=O)CCCCCCCCCCCCCCCCC(=O)O)C(=O)O)C(N)=O)[C@@H](C)O)NC(=O)[C@H](CCCNC(=N)N)NC(=O)[C@H](Cc2c[nH]cn2)NC(=O)[C@H](CCC(=O)O)NC(=O)CNC(=O)[C@H](Cc2c[nH]c3ccccc23)NC(=O)[C@H](CC(=O)O)NC(=O)[C@H](CCC(N)=O)NC(=O)[C@H](Cc2c[nH]c3ccccc23)NC(=O)[C@H]([C@@H](C)CC)NC1=O
B7: Compound 148 (peptide)
peptide: SEFAIWQDWGEHRCTEGEXESK
modifications: not fully specified; N-acetyl; C-terminal amide; delta-cystathionine (Ctt2) thioether bridge A4-hCys14 (hCys written C); W6 is 1-Me-Trp; X19 is Peg3; K22 side chain bears [17-carboxy-heptadecanoyl][γGlu]
B8: Compound 118 (peptide)
peptide: Ac-SEYCI[Trp(1-Me)]QDWGEHRC[Sar]EGAK([AEEA-γGlu-AEEA-Gly-γGlu-C18 diacid])-NH2
modifications: disulfide 4-14
SMILES: CC[C@H](C)[C@@H]1NC(=O)[C@@H](NC(=O)[C@H](Cc2ccc(O)cc2)NC(=O)[C@H](CCC(=O)O)NC(=O)[C@H](CO)NC(C)=O)CSSC[C@@H](C(=O)N(C)CC(=O)N[C@@H](CCC(=O)O)C(=O)NCC(=O)N[C@@H](C)C(=O)N[C@@H](CCCCNC(=O)COCCOCCNC(=O)CC[C@H](NC(=O)COCCOCCNC(=O)CNC(=O)CC[C@H](NC(=O)CCCCCCCCCCCCCCCCC(=O)O)C(=O)O)C(=O)O)C(N)=O)NC(=O)[C@H](CCCNC(=N)N)NC(=O)[C@H](Cc2c[nH]cn2)NC(=O)[C@H](CCC(=O)O)NC(=O)CNC(=O)[C@H](Cc2c[nH]c3ccccc23)NC(=O)[C@H](CC(=O)O)NC(=O)[C@H](CCC(N)=O)NC(=O)[C@H](Cc2cn(C)c3ccccc23)NC1=O
B9: Compound 120 (peptide)
peptide: Ac-SEFCI[Trp(1-Me)]QEWGEHRC[Sar]EGAK([AEEA-γGlu-AEEA-Gly-γGlu-C18 diacid])-NH2
modifications: disulfide 4-14
SMILES: CC[C@H](C)[C@@H]1NC(=O)[C@@H](NC(=O)[C@H](Cc2ccccc2)NC(=O)[C@H](CCC(=O)O)NC(=O)[C@H](CO)NC(C)=O)CSSC[C@@H](C(=O)N(C)CC(=O)N[C@@H](CCC(=O)O)C(=O)NCC(=O)N[C@@H](C)C(=O)N[C@@H](CCCCNC(=O)COCCOCCNC(=O)CC[C@H](NC(=O)COCCOCCNC(=O)CNC(=O)CC[C@H](NC(=O)CCCCCCCCCCCCCCCCC(=O)O)C(=O)O)C(=O)O)C(N)=O)NC(=O)[C@H](CCCNC(=N)N)NC(=O)[C@H](Cc2c[nH]cn2)NC(=O)[C@H](CCC(=O)O)NC(=O)CNC(=O)[C@H](Cc2c[nH]c3ccccc23)NC(=O)[C@H](CCC(=O)O)NC(=O)[C@H](CCC(N)=O)NC(=O)[C@H](Cc2cn(C)c3ccccc23)NC1=O
B10: Compound 8 (peptide)
peptide: Ac-ICIWQKWGAHRCTGAES-NH2
modifications: disulfide 2-12
SMILES: CC[C@H](C)[C@H](NC(C)=O)C(=O)N[C@H]1CSSC[C@@H](C(=O)N[C@H](C(=O)NCC(=O)N[C@@H](C)C(=O)N[C@@H](CCC(=O)O)C(=O)N[C@@H](CO)C(N)=O)[C@@H](C)O)NC(=O)[C@H](CCCNC(=N)N)NC(=O)[C@H](Cc2c[nH]cn2)NC(=O)[C@H](C)NC(=O)CNC(=O)[C@H](Cc2c[nH]c3ccccc23)NC(=O)[C@H](CCCCN)NC(=O)[C@H](CCC(N)=O)NC(=O)[C@H](Cc2c[nH]c3ccccc23)NC(=O)[C@H]([C@@H](C)CC)NC1=O
B11: Compound 53 (peptide)
peptide: Ac-EGSAFCI[Trp(1-Me)]QDWGEHRC[Sar]E-NH2
modifications: disulfide 6-16
SMILES: CC[C@H](C)[C@@H]1NC(=O)[C@@H](NC(=O)[C@H](Cc2ccccc2)NC(=O)[C@H](C)NC(=O)[C@H](CO)NC(=O)CNC(=O)[C@H](CCC(=O)O)NC(C)=O)CSSC[C@@H](C(=O)N(C)CC(=O)N[C@@H](CCC(=O)O)C(N)=O)NC(=O)[C@H](CCCNC(=N)N)NC(=O)[C@H](Cc2c[nH]cn2)NC(=O)[C@H](CCC(=O)O)NC(=O)CNC(=O)[C@H](Cc2c[nH]c3ccccc23)NC(=O)[C@H](CC(=O)O)NC(=O)[C@H](CCC(N)=O)NC(=O)[C@H](Cc2cn(C)c3ccccc23)NC1=O
B12: Compound 152 (peptide)
peptide: SEFCIWQDWGEHRAGEGEXXK
modifications: not fully specified; N-acetyl; C-terminal amide; gamma-cystathionine (Ctt1) thioether bridge hCys4-A14 (hCys written C); W6 is 1-Me-Trp; G15 is Sar; X19 and X20 are Peg3; K21 side chain bears [17-carboxy-heptadecanoyl][γGlu]G[γGlu]
B13: Compound 5 (peptide)
peptide: Ac-ICIWQDWGKHRCT-NH2
modifications: disulfide 2-12
SMILES: CC[C@H](C)[C@H](NC(C)=O)C(=O)N[C@H]1CSSC[C@@H](C(=O)N[C@H](C(N)=O)[C@@H](C)O)NC(=O)[C@H](CCCNC(=N)N)NC(=O)[C@H](Cc2c[nH]cn2)NC(=O)[C@H](CCCCN)NC(=O)CNC(=O)[C@H](Cc2c[nH]c3ccccc23)NC(=O)[C@H](CC(=O)O)NC(=O)[C@H](CCC(N)=O)NC(=O)[C@H](Cc2c[nH]c3ccccc23)NC(=O)[C@H]([C@@H](C)CC)NC1=O
B14: Compound 101 (peptide)
peptide: Ac-EGSAICIWQDWGEHRCTEGK([γGlu-C16 diacid])-NH2
modifications: disulfide 6-16
SMILES: CC[C@H](C)[C@H](NC(=O)[C@H](C)NC(=O)[C@H](CO)NC(=O)CNC(=O)[C@H](CCC(=O)O)NC(C)=O)C(=O)N[C@H]1CSSC[C@@H](C(=O)N[C@H](C(=O)N[C@@H](CCC(=O)O)C(=O)NCC(=O)N[C@@H](CCCCNC(=O)CC[C@H](NC(=O)CCCCCCCCCCCCCCC(=O)O)C(=O)O)C(N)=O)[C@@H](C)O)NC(=O)[C@H](CCCNC(=N)N)NC(=O)[C@H](Cc2c[nH]cn2)NC(=O)[C@H](CCC(=O)O)NC(=O)CNC(=O)[C@H](Cc2c[nH]c3ccccc23)NC(=O)[C@H](CC(=O)O)NC(=O)[C@H](CCC(N)=O)NC(=O)[C@H](Cc2c[nH]c3ccccc23)NC(=O)[C@H]([C@@H](C)CC)NC1=O

Biological target: Human C3 (human, UniProt P01024 23-1663)
Sequence (P01024 23-1663 limits assumed): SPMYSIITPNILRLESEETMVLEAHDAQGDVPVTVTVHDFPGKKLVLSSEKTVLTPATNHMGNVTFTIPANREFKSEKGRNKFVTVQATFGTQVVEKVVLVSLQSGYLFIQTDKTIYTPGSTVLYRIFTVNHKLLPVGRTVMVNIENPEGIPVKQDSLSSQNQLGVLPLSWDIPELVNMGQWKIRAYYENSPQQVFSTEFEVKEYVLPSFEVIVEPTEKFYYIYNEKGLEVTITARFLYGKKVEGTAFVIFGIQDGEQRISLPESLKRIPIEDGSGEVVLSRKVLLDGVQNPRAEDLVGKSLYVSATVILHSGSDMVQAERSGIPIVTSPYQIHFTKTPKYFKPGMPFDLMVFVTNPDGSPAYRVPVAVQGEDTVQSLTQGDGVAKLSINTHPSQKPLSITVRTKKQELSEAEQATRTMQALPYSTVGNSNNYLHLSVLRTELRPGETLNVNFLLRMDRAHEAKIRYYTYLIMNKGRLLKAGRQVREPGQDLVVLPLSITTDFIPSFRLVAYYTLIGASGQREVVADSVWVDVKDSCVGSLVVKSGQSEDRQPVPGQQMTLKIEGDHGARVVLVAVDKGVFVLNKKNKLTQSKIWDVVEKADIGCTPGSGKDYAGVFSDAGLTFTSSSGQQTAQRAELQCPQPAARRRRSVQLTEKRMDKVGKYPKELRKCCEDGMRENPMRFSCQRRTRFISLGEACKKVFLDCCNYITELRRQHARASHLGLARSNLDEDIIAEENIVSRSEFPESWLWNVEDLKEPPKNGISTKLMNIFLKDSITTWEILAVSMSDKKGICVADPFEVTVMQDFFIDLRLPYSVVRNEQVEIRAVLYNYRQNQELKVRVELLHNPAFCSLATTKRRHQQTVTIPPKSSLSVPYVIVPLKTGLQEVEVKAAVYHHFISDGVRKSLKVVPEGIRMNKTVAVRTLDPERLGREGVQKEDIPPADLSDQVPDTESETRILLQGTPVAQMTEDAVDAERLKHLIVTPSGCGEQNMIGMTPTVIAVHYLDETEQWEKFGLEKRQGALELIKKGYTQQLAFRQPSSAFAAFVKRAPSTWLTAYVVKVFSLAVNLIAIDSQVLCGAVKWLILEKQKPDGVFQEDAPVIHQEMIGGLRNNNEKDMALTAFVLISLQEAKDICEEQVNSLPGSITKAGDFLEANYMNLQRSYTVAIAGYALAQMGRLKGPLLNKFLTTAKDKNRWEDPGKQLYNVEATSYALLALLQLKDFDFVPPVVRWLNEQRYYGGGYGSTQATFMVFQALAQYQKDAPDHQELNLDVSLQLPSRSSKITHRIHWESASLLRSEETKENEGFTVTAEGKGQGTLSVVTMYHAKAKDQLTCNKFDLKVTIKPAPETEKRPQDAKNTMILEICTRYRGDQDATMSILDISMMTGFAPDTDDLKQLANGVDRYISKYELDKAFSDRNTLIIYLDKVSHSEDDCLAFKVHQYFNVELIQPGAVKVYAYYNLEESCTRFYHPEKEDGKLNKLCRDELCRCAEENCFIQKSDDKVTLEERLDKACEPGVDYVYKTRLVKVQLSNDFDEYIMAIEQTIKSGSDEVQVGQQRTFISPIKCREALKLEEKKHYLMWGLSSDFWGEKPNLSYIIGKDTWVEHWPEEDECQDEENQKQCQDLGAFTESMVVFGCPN
Assay: cell-based or functional assay

Binder | IC50[nM], inhibition of hemolysis [nM]
B1 | < 250
B2 | < 500
B3 | < 250
B4 | < 500
B5 | < 1000
B6 | < 1000
B7 | < 100
B8 | < 100
B9 | < 250
{15‑Carboxy‑pentadecanoyl}-ESSAICIWQDWGEHRCTEGE-NH2 (disulfide 6-16) [Compound 99] | < 250
B10 | < 500
B11 | < 100
Ac-SEFCI[Trp(1-Me)]QDWGEHRC[Sar]EGE[AEEA][AEEA]K([γGlu-Gly-γGlu-C18 diacid])-NH2 (disulfide 4-14) [Compound 123] | < 100
B12 | < 100
Ac-SEFCI[Trp(1-Me)]QDWGEHRC[Sar]EGE[AEEA][AEEA]K([γGlu-Gly-γGlu-C20 diacid])-NH2 (disulfide 4-14, also called comp 128) [Compound 128] | < 100
B13 | < 250
B14 | < 500
